Assay results published in PMC8222386.

What was measured:
[1] = target: iLight (evolved photosensory core module of Idiomarina sp. bacterial phytochrome IsPadC) (Idiomarina sp. A28L)
[2] = target: iLight (evolved photosensory core module of Idiomarina sp. bacterial phytochrome IsPadC) (Idiomarina sp. A28L); remark: listed apart in the source
[3] = target: iLight (evolved photosensory core module of Idiomarina sp. bacterial phytochrome IsPadC) (Idiomarina sp. A28L); remark: listed apart in the source
[4] = target: iLight (evolved photosensory core module of Idiomarina sp. bacterial phytochrome IsPadC) (Idiomarina sp. A28L); experiment: native gel or EMSA + SEC; Pr state: purified protein illuminated with 780/30 nm light (2 mW/cm2, 0.5 h) in 20 mM HEPES pH 7.7, 300 mM NaCl; native PAGE 4-20% gradient gel, 20 ug per lane, run in darkness, ZnCl2 staining; SEC on HiLoad 16/600 Superdex 200 in darkness, protein at 1.9 mg/ml
[5] = target: iLight (evolved photosensory core module of Idiomarina sp. bacterial phytochrome IsPadC) (Idiomarina sp. A28L); experiment: native gel or EMSA + SEC; Pfr state: purified protein illuminated with 660/15 nm light (2 mW/cm2, 0.5 h) in 20 mM HEPES pH 7.7, 300 mM NaCl; native PAGE 4-20% gradient gel, 20 ug per lane, run in darkness, ZnCl2 staining; SEC on HiLoad 16/600 Superdex 200 in darkness, protein at 1.9 mg/ml; step: dimers to tetramer
[6] = target: wild-type IsPadC-PCM (photosensory core module of Idiomarina sp. A28L phytochrome-activated diguanylyl cyclase) (Idiomarina sp. A28L); experiment: native gel or EMSA; native PAGE of Fig. 3f, 20 ug per lane, ZnCl2 staining for bound biliverdin; illumination state not told for this statement; step: monomers to dimer

repression of the ColE-driven mCherry reporter in E. coli by LexA408-DBD-iLight-msfGFP, 660 nm light against darkness [1] [fold] | SEAP reporter production in HeLa cells with NLS-Gal4-DBD-iLight-VP16 after 48 h of 660 nm light against darkness, exogenous biliverdin from none (~20.5-fold) to 10 uM [2] [fold] | time course of SEAP reporter production in HeLa cells with NLS-Gal4-DBD-iLight-VP16, 660 nm light against darkness, 24 h (~19-fold) to 72 h [2] [fold] | RLuc8 reporter signal in livers of mice co-transfected with NLS-Gal4-DBD-iLight-VP16 and pG12-RLuc8, 24 h of 660 nm light against darkness [3] [fold] | stoichiometry N [4] | stoichiometry N [5] | stoichiometry N [6] | Substance
115 | 65 to 70 | 70 | 6 | 2 | 4 |  | iLight (evolved photosensory core module of Idiomarina sp. bacterial phytochrome IsPadC) (domain or fragment)
 |  |  |  |  |  | 2 | wild-type IsPadC-PCM (photosensory core module of Idiomarina sp. A28L phytochrome-activated diguanylyl cyclase) (domain or fragment)
